This note sets out measurements from paper PMC2175121.

For the experiment, the target named is cell-surface GalNAcPTase (chicken (endogenous in E9 chick retina cells)).

The substance “Full-length neurocan fusion protein (RP) (natural protein)” came in with an inhibition of N-cadherin-mediated adhesion of E9 retina cells, RP at 20 μg/ml of 60%.
